Data on one substance can be found in patent US6063627.

The data set has as its system Cre recombinase (Bacteriophage P1). The data set is described as follows: cell_activity. The conditions noted are these: cotransfection with Cre-expressing plasmid.

Bounds are passed on as bounds.

For Lox sites in pEOBglugl, the activity (log induction of beta-glucuronidase) is greater than 3.
